According to patent US9226899B2, “Particulate hyaluronic acid and flavonoid formulations for cellular delivery of bioactive agents” (AGENCY FOR SCIENCE, TECHNOLOGY AND RESEARCH, priority 2009, dated 2016):

How the values were obtained:
[1] = biological target: T1, lysozyme (Gallus gallus, UniProt P00698); experiment: Lysozyme activity assay (M. lysodeikticus turbidity); format: biochemical, chicken
T1 construct: lysozyme from chicken egg white; purchased Sigma-Aldrich; host or cells: chicken egg white (natural source)
Experimental: To determine the activity of lysozyme, 20 μl of sample containing either free lysozyme or HA-EGCG/lysozyme particles was added to a well of a 96-well assay plate, followed by 100 μl of M. lysodeikticus (0.15% (w/v) in PBS). The decrease in turbidity was monitored by a Tecan Infinite 200 microplate reader by measuring the absorbance of the sample at 450 nm at room temperature every 3 min for 15 min. The absorbance decay plot was fitted to a linear equation, and the slopes were used to determine iysozyme activity. Regarding the restoration of activity of lysozyme that is complexed with HA-EGCG, the following protocol was used: the HA-EGCG/lysozyme particles were first allowed to self-assemble for 10 min at room temperature, with free lysozyme diluted with PBS as a control. A constant volume of Triton-X of different concentrations was then added to each sample (to a final concentration of 0.001, 0.01 or 0.1% w/v), incubated at room temperature for a further 5 min before the lysozyme substrate, M. lysodeikticus, was added, and the absorbance monitored as described above.

[2] = biological target: T1, lysozyme; experiment: Fluorescence quenching studies; format: binding, chicken
Experimental: The fluorescence emission spectra of the HA-EGCG/lysozyme particles, HA/lysozyme mixtures, free lysozyme alone, free HA-EGCG carrier or free HA alone were measured at an excitation wavelength of 280 nm using a fluorescence spectrophotometer (Hitachi, Japan). Difference spectra between the HA-EGCG/lysozyme particles and HA-EGCG were obtained to determine the net fluorescence of lysozyme in particles of varying HA-EGCG concentrations. The same was done for HA/lysozyme mixtures.

[3] = system: HCT-116 cells; experiment: Cell viability studies (AlamarBlue); format: cell-based, human; conditions: delivered together with chloroquine; data not shown
Experimental: HCT-116 human colon carcinoma cells were obtained from ATCC, and cultured in McCoy's 5A medium supplemented with 10% FBS and 100 units/mL of penicillin/streptomycin.
HCT-116 cells were seeded at 10,000 cells per well in 96-well microplates with complete growth medium and left to attach for 48 h. Test reagents were prepared by first mixing the linear PEI (polyethylenimine) or chloroquine solution (fixed at 100 μM)) with Granzyme B (fixed at 2 μg/ml) for 15 min before adding HA-EGCG solution to the mixture and allow complexation to take place for 45 min. The medium in the wells was then aspirated and the cells were treated with the respective reagents for 48 h (all dilutions were made in serum-free medium). Cell viability was analyzed using AlamarBlue. Before analysis, the medium was aspirated and the cells were gently washed with PBS once before a mixture of 10 μl of alamarblue reagent with 100 μl of serum-containing medium was added to each well. The cells were incubated for 2 h and the fluorescence emission of each well was measured using a Tecan infinite Microplate Reader. The viabilities of treated cells were evaluated as a percentage of the negative control. Each data set is an average of 4 repeats.

T1 sequence (P00698 19-147): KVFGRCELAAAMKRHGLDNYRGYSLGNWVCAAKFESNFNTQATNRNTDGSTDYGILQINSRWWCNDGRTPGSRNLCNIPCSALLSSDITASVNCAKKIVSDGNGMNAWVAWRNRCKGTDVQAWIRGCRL

free lysozyme: lysozyme from chicken egg white, model protein
apparent lysozyme activity ([1]; 0.001% w/v Triton-X, % of original activity of free lysozyme (FIG. 9b)): 140%
maximum apparent lysozyme activity (plateau) ([1]; 0.01% and 0.1% Triton-X (FIG. 9b)): about 160%

(−)-epigallocatechin gallate [EGCG]
quenching of intrinsic lysozyme fluorescence ([2]; EX 280 nm, concentration-dependent (FIG. 5)): can quench the intrinsic fluorescence of lysozyme
quenching of intrinsic lysozyme fluorescence at the same EGCG concentration ([2]; free EGCG vs HA-EGCG (FIG. 7)): quenches intrinsic lysozyme fluorescence to a smaller degree than HA-EGCG

B1: Granzyme: protease secreted by cytotoxic T lymphocytes, activates caspase and induces apoptosis (protein, UniProt P04187 21-247, looked up)
Granzyme B(G,H): IIGGHEVKPHSRPYMALLSIKDQQPEAICGGFLIREDFVLTAAHCEGSIINVTLGAHNIKEQEKTQQVIPMVKCIPHPDYNPKTFSNDIMLLKLKSKAKRTRAVRPLNLPRRNVNVKPGDVCYVAGWGRMAPMGKYSNTLQEVELTVQKDRECESYFKNRYNKTNQICAGDPKTKRASFRGDSGGPLVCKKVAAGIVSYGYKDGSPPRAFTKVSSFLSWIKKTMKSS
cytotoxicity in HCT-116 cells [3]: induced cytotoxicity in HCT-116 cells
